Source: US20100113575A1

Experiments:
[1] = target: autoprocessed, secreted PCSK9-152FLAG-V5/His (human) (UniProt Q8NBP7); test: TR-FRET on cell media, 50,000 cells per well
LDLR = LDLR (UniProt P01130); test: cell-based or functional assay

## Eu+3-labeled anti-FLAG M1 antibody
[1]
  window of the TR-FRET ratio against PCSK9-152FLAG-V5/His-S386A: 3 fold

## purified nonprocessed D186A PCSK9 (from UniProt Q8NBP7 31-692) (enzyme)
LDLR
  activity in PCSK9-dependent LDL uptake against processed PCSK9: 20 fold

## purified processed D186A PCSK9 (with retained pro domain) (from UniProt A8T644 31-152; Q8NBP7 153-692) (enzyme)
LDLR
  EC50, inhibition of diI-LDL uptake in HEK293 cells: 189 nM
  fold decrease in potency in the PCSK9-dependent LDL-uptake assay against WT PCSK9: 4 fold
